Test: SEC; TSK gel G3000SWXL, 100 mmol/L sodium phosphate with 100 mmol/L Na2SO4 (pH 6.8), isocratic, 0.4 ml/min, 25°C, UV at 280 nm; area percentages of monomer, oligomeric and truncated forms of the antibody solution (5 g/L in 10 mmol/L potassium phosphate pH 7.0)

For “NMIJ RM 6208a, AIST-MAB (humanized IgG1κ monoclonal antibody reference material)”, the “area percentage of the monomer peak” value was “(93.7 ± 0.2) %”.

— article PMC9207415
